{
  "source": "paper PMC3365051",
  "about": "“Sequence-Specific Binding of Recombinant Zbed4 to DNA: Insights into Zbed4 Participation in Gene Transcription and Its Association with Other Proteins”",
  "binders": {"B1": {"name": "GC-box1 (ssDNA)", "DNA": "AAAAAGGGGCGGGGCAAAAA"}, "B2": {"name": "GC-box2 (ssDNA)", "DNA": "AAAAATGGGCGGAATAAAAA"}, "B3": {"name": "poly-T (called 20-mer, 19 T printed) (ssDNA)", "DNA": "TTTTTTTTTTTTTTTTTTT"}, "B4": {"name": "poly-ribo-G (ssRNA)", "RNA": "UUUUUGGGGGGGGGGUUUUU"}, "B5": {"name": "poly-A (A20) (ssDNA)", "DNA": "AAAAAAAAAAAAAAAAAAAA"}, "B6": {"name": "poly-ribo-C (ssRNA)", "RNA": "UUUUUCCCCCCCCCCUUUUU"}},
  "data": [
    {"target": "T1, Zbed4 (mouse (cDNA from mouse retinal RNA), UniProt Q80WQ9 1-1168)", "T1 sequence": "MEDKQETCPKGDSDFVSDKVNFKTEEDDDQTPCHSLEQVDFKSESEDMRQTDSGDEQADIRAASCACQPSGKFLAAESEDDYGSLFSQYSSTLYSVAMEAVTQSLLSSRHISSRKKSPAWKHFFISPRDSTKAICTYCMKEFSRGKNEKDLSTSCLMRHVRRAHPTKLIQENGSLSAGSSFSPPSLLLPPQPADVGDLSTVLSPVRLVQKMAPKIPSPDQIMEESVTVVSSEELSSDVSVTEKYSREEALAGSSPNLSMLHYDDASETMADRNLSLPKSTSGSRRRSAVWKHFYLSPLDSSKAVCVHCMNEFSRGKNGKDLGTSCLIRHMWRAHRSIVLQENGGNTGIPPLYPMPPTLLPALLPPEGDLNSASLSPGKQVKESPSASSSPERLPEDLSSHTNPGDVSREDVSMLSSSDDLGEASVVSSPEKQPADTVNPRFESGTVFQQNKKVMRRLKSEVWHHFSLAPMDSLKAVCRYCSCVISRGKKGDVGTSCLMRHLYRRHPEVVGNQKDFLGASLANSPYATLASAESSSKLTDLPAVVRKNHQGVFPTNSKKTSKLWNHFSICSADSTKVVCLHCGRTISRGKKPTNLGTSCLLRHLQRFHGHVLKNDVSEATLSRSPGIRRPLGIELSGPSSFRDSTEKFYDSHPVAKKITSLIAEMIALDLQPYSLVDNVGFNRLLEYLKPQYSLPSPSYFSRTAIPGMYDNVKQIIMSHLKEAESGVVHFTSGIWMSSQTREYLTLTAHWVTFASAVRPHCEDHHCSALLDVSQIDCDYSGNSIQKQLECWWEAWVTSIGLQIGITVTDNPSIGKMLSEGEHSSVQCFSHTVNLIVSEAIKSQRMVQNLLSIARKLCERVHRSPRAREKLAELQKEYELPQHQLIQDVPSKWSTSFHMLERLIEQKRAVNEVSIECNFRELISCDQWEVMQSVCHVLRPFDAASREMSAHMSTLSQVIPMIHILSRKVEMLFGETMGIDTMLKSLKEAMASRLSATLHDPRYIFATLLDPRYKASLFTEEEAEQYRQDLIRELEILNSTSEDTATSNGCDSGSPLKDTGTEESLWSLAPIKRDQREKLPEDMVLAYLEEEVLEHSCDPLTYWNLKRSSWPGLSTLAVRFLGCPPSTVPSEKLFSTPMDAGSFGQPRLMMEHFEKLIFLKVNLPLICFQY", "test": "EMSA; 20 ug Zbed4, 0.5 nM oligo in 20 mM HEPES pH 7.5, 150 mM NaCl, 5 mM beta-mercaptoethanol, 5% glycerol, 0.5 mM ascorbic acid, 0.5 mM propyl gallate, 10 uM ZnSO4", "details": "protein: recombinant; tags: C-terminal His8", "values": [
      {"binder": "B1", "binding result": "binds"},
      {"binder": "B2", "binding result": "no binding"},
      {"binder": "B3", "binding result": "no binding"},
      {"binder": "B4", "binding result": "binds"},
      {"binder": "B5", "binding result": "no binding"},
      {"binder": "B6", "binding result": "no binding"}
    ]}
  ]
}
